The target of this assay is PB2 polymerase subunit fused to Gluc1, of recombinant WSN virus (WSN-PB2-Gluc1) (UniProt P03427). The conditions noted are these: parent: est. 100; read off a plot.

For the substance “Gluc2-DDX19B wild type (from UniProt Q9UMR2) R428Q”, the percent of parent was found to be 68%.

Values taken from article PMC5037575.
